Biological target: amyloid β precursor-like protein 1 (Aplp1), on transfected SH-SY5Y cells (UniProt Q03157)
Assay: cell surface-binding assay

Sequence of UniProt Q03157 (Q03157 39-654): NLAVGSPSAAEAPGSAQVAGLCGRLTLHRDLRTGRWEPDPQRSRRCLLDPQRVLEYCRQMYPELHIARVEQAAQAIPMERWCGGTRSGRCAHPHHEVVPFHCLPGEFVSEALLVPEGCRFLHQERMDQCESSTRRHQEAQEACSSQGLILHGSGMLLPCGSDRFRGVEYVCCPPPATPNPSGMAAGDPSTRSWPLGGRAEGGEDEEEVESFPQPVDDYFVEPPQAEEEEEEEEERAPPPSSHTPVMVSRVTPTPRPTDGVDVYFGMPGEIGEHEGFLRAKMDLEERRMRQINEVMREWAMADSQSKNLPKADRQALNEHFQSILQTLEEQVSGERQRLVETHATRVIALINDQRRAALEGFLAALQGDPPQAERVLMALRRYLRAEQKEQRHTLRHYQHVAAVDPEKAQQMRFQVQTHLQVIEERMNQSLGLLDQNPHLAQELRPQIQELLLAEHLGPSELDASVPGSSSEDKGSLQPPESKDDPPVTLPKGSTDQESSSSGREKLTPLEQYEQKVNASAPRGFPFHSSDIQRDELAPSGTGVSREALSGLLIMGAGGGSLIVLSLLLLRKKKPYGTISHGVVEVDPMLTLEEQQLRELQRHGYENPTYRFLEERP

For β-amyloid-biotin PFF (peptide), which Kd is on record?
Its Kd is over 3000 nM.
